In patent publication CN108948199A (BOAOXIN BIOTECHNOLOGY NANJING CO LTD, dated 2018):

What was measured:
重组人CSF1R带his标签的蛋白 = molecular target: T1, 重组人CSF1R带his标签的蛋白 (human, UniProt P07333 20-512); assay: ELISA screen of hybridoma supernatant on coated human CSF1R-his
T1 construct: Bought protein used as coating antigen for hybridoma screening; also called 人CSF1R-his; CSF1R-his蛋白抗原; not shown: his tag

生物素标记人CSF1R Fc蛋白 = molecular target: T2, 生物素标记人CSF1R Fc蛋白 (human, UniProt P07333 20-512, biotin-labelled (site not stated)); assay: binding assays of Example 2 (capture ELISA with biotin-labelled human CSF1R Fc; flow cytometry on 293F cells expressing human CSF1R), summarised in Table 2
T2 construct: range 20-512; also called CSF1R Fc biotin; 人CSF1R抗原; not shown: human IgG1 Fc tag at the C-terminus
T2 sequence (P07333 20-512 limits assumed): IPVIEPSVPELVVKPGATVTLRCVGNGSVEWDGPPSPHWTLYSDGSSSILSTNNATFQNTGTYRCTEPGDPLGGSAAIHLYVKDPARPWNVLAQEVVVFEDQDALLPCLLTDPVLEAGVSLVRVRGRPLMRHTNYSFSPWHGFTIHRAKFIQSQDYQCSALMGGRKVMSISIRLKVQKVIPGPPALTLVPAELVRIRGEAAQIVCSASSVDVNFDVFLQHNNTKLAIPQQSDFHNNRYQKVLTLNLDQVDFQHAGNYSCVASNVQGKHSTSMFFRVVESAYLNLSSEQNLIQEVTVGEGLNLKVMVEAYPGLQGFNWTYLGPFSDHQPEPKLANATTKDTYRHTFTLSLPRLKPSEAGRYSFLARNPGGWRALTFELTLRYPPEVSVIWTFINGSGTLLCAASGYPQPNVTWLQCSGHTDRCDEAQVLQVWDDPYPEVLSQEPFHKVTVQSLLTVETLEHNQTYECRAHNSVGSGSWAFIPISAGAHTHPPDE

T1 sequence (P07333 20-512 limits assumed): as above

binding result (重组人CSF1R带his标签的蛋白): binds
binding result (生物素标记人CSF1R Fc蛋白): binds
B1: 1G6 抗人CSF-1R小鼠单克隆抗体 (antibody, V domains shown)
VH: QIQLVQSGPELKKPGETVKISCKASGYTFIIYGMNWVKQTPGRGLKWMGWINTYTGEPTYADDFKGRFAFSLETSASTASLQINNLKNEDTATYFCAREVYDGYPSHYAMDYWGQGTSVTVSS
VL: DIVMTQAAPSVPVTPGESVSISCRSSKSLLHSNGNTYLYWFLQRPGQSPQLLIYWMSNLASGVPDRFSGSGSGTAFTLRISRVEAEDVGVYYCLQHLEYPYTFGGGTKLEIK
notes: also called 1G6抗体; 本发明的抗人CSF-1R单克隆抗体
